Legend:
[1] = target: N-terminal peptidase domain of wild-type human ACE2 (residues Met1-Asp615) (human, UniProt Q9BYF1 18-615); test: SPR
[2] = target: N-terminal peptidase domain of human ACE2 [change] variant (residues Met1-Asp615) (human, UniProt Q9BYF1 18-615); test: SPR

B1: HCoV-NL63 receptor-binding domain (residues Gln481-Ile616) (domain or fragment)
chain: QHTDINFTATASFGGSCYVCKPHQVNISLNGNTSVCVRTSHFSIRYIYNRVKSGSPGDSSWHIYLKSGTCPFSFSKLNNFQKFKTICFSTVEVPGSCNFPLEATWHYTSYTIVGALYVTWSEGNSITGVPYPVSGI
**Q.** Which Kd [1] does the source give for B1 here?
**A.** Its Kd is 575 nM.

**Q.** What about the Kd [2] of the same binder?
**A.** Its Kd is 2610 nM.

B2: SARS-CoV receptor-binding domain (residues Arg306-Leu515) (domain or fragment)
chain: not shown
**Q.** B2 was tested. Which Kd [1] did it give?
**A.** Its Kd is 511 nM.

Source: article PMC8754202 (Journal of Virology, 2021)
